{
  "source": "paper PMC3433420",
  "about": "“Comprehensive Binary Interaction Mapping of SH2 Domains via Fluorescence Polarization Reveals Novel Functional Diversification of ErbB Receptors” (PLoS ONE, 2012)",
  "assay_in_all_cases": "peptide or protein array; SH2/PTB proteins spotted on aldehyde slides, rhodamine peptide titrated in buffer B (20 mM HEPES, 100 mM KCl, 0.1% Tween-20, 5 mM DTT, pH 7.8), 1 h at room temperature; replicate assays",
  "settings_in_all_cases": "both partners purified",
  "key": {"SH3BP2 SH2 domain": {"target": "T1, SH3BP2 SH2 domain (human, UniProt P78314 457-555)", "T1 construct": "SH3BP2, human; source: bacterial expression, purified", "T1 sequence (looked up)": "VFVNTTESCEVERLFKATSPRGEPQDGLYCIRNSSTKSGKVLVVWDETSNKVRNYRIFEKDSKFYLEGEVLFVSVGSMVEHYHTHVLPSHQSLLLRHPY"}, "[1]": {"target": "T2, PLCG2 N-terminal SH2 domain (human)", "T2 construct": "PLCG2, human; source: bacterial expression, purified", "T2 sequence (P16885 whole entry, looked up)": "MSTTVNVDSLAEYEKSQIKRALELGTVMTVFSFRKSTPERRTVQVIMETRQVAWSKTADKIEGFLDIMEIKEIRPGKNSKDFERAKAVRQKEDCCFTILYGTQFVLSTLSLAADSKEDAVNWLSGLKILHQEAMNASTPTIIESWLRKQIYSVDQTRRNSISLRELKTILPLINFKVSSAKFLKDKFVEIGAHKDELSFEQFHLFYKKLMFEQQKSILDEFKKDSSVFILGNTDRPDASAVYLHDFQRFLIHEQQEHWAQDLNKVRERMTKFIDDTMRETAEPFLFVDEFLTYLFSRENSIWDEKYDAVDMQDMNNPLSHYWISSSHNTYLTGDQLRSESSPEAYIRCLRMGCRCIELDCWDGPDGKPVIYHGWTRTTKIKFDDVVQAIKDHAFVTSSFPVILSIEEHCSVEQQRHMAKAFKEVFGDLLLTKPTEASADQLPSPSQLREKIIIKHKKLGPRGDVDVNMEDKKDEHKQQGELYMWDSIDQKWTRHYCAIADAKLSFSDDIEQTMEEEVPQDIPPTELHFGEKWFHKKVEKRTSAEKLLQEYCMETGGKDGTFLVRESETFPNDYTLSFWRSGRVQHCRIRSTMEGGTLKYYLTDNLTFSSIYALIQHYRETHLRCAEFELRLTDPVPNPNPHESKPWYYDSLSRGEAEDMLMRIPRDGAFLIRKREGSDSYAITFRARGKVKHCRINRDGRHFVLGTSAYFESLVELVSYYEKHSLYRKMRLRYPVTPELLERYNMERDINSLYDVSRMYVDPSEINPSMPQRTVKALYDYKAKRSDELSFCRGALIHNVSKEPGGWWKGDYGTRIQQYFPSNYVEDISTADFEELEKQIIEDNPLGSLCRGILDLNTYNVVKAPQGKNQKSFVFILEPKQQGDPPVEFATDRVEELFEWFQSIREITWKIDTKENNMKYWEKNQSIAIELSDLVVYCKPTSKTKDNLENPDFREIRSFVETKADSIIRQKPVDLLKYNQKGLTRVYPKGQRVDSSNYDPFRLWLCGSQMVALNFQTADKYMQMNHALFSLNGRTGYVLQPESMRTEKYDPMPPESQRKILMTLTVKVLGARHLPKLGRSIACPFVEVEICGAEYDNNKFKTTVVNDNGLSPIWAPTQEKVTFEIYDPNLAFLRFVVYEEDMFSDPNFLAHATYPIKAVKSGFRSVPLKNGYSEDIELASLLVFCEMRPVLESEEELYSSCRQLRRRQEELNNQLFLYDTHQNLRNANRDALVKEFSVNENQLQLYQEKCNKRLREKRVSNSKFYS"}, "[2]": {"target": "T3, SYK C-terminal SH2 domain (human)", "T3 construct": "SYK, human; source: bacterial expression, purified"}, "[3]": {"target": "T4, PIK3R2 tandem SH2 domains (human, UniProt O00459 1-728)", "T4 construct": "PIK3R2, human; also called PIK3R2-NC; source: bacterial expression, purified", "T4 sequence (O00459 whole entry, the tested form may be a part)": "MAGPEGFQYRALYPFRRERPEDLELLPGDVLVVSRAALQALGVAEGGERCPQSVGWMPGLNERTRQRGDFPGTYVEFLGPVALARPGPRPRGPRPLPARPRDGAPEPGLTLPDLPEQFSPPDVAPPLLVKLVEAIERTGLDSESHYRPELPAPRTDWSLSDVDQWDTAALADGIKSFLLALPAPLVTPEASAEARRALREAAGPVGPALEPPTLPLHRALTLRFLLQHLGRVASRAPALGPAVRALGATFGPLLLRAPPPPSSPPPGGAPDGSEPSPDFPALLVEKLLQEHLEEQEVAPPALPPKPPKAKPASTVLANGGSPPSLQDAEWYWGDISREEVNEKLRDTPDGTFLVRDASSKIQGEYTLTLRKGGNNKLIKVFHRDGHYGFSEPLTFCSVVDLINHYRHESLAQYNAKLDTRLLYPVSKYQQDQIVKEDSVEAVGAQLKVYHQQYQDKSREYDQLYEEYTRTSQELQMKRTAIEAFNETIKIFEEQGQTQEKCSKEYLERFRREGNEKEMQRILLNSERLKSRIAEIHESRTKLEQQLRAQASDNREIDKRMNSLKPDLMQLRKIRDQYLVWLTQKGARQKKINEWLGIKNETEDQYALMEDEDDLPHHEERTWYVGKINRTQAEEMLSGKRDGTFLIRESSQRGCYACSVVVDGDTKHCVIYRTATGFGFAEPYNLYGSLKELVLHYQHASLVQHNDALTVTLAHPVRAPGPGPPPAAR"}, "SYK tandem SH2 domains": {"target": "SYK tandem SH2 domains (human)"}, "PLCG2 tandem SH2 domains": {"target": "T5, PLCG2 tandem SH2 domains (human)", "T5 construct": "PLCG2, human; also called PLCG2-NC; source: bacterial expression, purified", "T5 sequence (P16885 whole entry, looked up)": "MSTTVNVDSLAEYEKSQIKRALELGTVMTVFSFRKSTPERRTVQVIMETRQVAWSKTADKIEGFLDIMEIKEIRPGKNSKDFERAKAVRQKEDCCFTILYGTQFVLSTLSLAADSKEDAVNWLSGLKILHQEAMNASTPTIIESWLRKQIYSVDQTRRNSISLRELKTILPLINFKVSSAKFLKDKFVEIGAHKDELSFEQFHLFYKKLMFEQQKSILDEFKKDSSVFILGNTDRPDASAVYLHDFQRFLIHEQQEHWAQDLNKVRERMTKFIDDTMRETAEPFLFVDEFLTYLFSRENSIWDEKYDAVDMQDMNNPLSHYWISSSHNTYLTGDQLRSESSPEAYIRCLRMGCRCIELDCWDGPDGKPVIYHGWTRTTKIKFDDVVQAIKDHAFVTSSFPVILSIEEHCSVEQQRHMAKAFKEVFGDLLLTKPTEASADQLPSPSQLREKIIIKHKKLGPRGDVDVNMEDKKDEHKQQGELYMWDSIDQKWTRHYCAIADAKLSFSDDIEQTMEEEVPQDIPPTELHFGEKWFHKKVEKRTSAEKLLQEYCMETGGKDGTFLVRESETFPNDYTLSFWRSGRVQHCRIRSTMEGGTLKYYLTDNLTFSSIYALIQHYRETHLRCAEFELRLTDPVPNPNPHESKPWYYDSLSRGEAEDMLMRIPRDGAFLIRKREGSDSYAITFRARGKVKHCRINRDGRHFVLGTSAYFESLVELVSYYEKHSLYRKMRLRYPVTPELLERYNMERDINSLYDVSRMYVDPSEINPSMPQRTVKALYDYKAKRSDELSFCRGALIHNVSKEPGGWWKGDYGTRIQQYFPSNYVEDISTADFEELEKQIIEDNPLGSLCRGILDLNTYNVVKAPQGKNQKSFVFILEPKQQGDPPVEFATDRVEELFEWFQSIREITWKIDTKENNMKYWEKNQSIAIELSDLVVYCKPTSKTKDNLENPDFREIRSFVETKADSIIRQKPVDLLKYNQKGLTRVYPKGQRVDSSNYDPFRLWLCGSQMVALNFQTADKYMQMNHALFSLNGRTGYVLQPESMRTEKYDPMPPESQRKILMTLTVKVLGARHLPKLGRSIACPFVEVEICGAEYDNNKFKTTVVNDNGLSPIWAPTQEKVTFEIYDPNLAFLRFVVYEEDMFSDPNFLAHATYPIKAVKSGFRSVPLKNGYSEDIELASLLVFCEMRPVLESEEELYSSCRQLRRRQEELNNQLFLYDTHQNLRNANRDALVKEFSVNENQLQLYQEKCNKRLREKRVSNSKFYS"}, "SH2D1A SH2 domain": {"target": "T6, SH2D1A SH2 domain (human, UniProt O60880 6-104)", "T6 construct": "SH2D1A, human; source: bacterial expression, purified", "T6 sequence (looked up)": "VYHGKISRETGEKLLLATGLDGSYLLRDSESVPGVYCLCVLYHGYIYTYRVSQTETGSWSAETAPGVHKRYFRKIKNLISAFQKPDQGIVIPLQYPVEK"}, "SH2D2A SH2 domain": {"target": "T7, SH2D2A SH2 domain (human, UniProt Q9NP31 95-186)", "T7 construct": "SH2D2A, human; source: bacterial expression, purified", "T7 sequence (Q9NP31 95-186)": "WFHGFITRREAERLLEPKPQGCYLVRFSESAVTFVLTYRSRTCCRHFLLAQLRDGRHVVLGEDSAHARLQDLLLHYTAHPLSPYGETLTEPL"}},
  "note": "Where “and” joins values, the source holds several entries; their conditions need not be identical. Identical values can stand only once. Non-standard residues stand in square brackets, D forms with d. No end group written: not given here. pY = N[C@@H](Cc1ccc(OP(=O)(O)O)cc1)C(=O)O; Rhodamine = not defined here",
  "data": [
    {"binder": "Rhodamine-ETDG[pY]VAPLTCSD (reading uncertain)", "note": "[ErbB2 pY1127 phosphopeptide, rhodamine-labelled, for protein microarrays]", "values": [
      {"measurement": "Kd", "setting": "SH3BP2 SH2 domain", "value": "1.14 µM and 2.86 µM"},
      {"measurement": "Kd", "setting": "[1]", "value": 4.16, "unit": "µM"},
      {"measurement": "Kd", "setting": "[2]", "value": "1.92 µM and 2.39 µM"},
      {"measurement": "Kd", "setting": "[3]", "value": "0.0106 µM and 0.00466 µM"},
      {"measurement": "Kd", "setting": "SYK tandem SH2 domains", "value": "1.3 µM and 0.957 µM"},
      {"measurement": "Kd", "setting": "PLCG2 tandem SH2 domains", "value": "0.578 µM and 1.6 µM"},
      {"measurement": "Kd", "setting": "SH2D1A SH2 domain", "value": "1.6 µM and 4.59 µM"},
      {"measurement": "Kd", "setting": "SH2D2A SH2 domain", "value": 2.75, "unit": "µM"}
    ]}
  ]
}
